Laboratory results published in patent publication US20220073643A1.
Changes are numbered by the printed parent chain.

B1: 425B3D5 (antibody, V domains shown)
VH: DVQLVESGGGLVQPGGSRKLSCAASGFTFSGFGMHWIRQTPEKGLEWVAYISSGSRPIYYADTVQGRFTISRDNPKNTLFLQMTSLRSEDTAMYFCARFYYGNSFDHWGQGTLVTVSS
VL: DIVMTQSPSFLTVTAGEKVTMSCKSSQSLLNSGNQKNYLTWYQQKPGQPPKLLIYWASTRESGVPDRFTGSGSGTDFTLTISSVQAEDLALYYCQNAYSFPLTFGAGTKLELK
B2: 233D5E5 (antibody, V domains shown)
VH: QAYLQQSGAELVRSGASVKMSCKASGYTFTSHNMHWVKQTPRQGLEWIGYIYPGNGDTNYNQKFKGKATLTADTSSSTAYMQISSLTSEDSAVYFCTRDYYGNSFAYWGQGTLVTVSA
VL: B1 VL with F10S, V13E, T14K, K18R, T20S, L30F, L91V, S99W, F100Y, L102F
B3: 182D10F1 (antibody, V domains shown)
VH: QAYLQQSGAELVRSGASVKMSCKASGYTFSSYNMHWVKQTPGQGLEWIGYIYPGNGGTNYNQKFKGKATLTADTSSSTAYMQISSLTSEDSAVYFCLTGRGFTYWGQGTLVTVSA
VL: B1 VL with F10S, S22N, L30F, W56R, L91V, A97D, F100Y, A106V
B4: 207F8G5 (antibody, V domains shown)
VH: QAYLQQSGAELVRSGASVKMSCKASGFTFTSYNIHWVKQTPGQGLEWIGYISPGNGGSNYNLKFKDKATLTSATSSSTAYMQISSLTSEDSAVYFCATGRGFAYWGQGTLVTVSA
VL: B1 VL with F10S, A15P, L30F, T40I, W56R, E61D, S83N, L91I, A97D, F100Y
B5: 232C5E3 (antibody, V domains shown)
VH: B2 VH with M34I, V37I, R42G, Q43K, D57G, G66A, T97A
VL: B1 VL with V3M, F10S, V13E, T20S, T69S, L91V, A97G, S99R, L102F
B6: 234B9D4 (antibody, V domains shown)
VH: EIQLQQSGPDLMKPGSSVKISCTASGYSFTSYYIHWVKQSHGKTLEWIGYIDPFNGGTRYNQKFEGKAALTVDKSSTTAYMHLTSLTSDDSAVYYCASLRFFTYWGQGTLVTVSA
VL: B1 VL with F10S, S22T, K36E, Y55S, W56R, E61Q, L91V, A97D, F100Y
B7: 240A8E7 (antibody, V domains shown)
VH: B2 VH with S31N, H32Y, M34I, R42G, T58N, N59Y, T97A
VL: B1 VL with I2V, F10S, S22N, L52M, L91I, A97D, S99Y, F100Y, L102F
B8: 234A10F7 (antibody, V domains shown)
VH: QVQLQQSGAELVKPGASVKLSCKASGYTFTSFGINWLRQRPEQGLEWIGWIFPGDGNSKYNENFKGKATLTTDKSSSTAYMQLTRLTSEDSAVYFCARFYYGNSFAYWGQGTLVTVSA
VL: B1 VL with F10S, A15T, E17Q, S58A, L91V, A97D, S99F, F100Y, L102F
B9: 426D9F6 (antibody, V domains shown)
VH: B1 VH with Q65K, S118A
VL: B1 VL with K36R, I81V
B10: 425C6D3 (antibody, V domains shown)
VH: B1 VH
VL: B1 VL
B11: 430B3F1 (antibody, V domains shown)
VH: B1 VH with S55G, V116I
VL: B1 VL
B12: 426H6E11 (antibody, V domains shown)
VH: B1 VH
VL: B1 VL with S7F, S28T, K109N
B13: 222B6G5 (antibody, V domains shown)
VH: B4 VH with A2T, F27Y, S58T, N59Y, S72T
VL: B1 VL with F10S, A15P, L30F, T40I, W56R, E61D, S83N, L91V, A97D, F100Y
B14: 234C9G5 (antibody, V domains shown)
VH: B2 VH with T28A, R42G, Y52S, D57Y, K65R, S84G
VL: B1 VL with F10S, V13E, T14K, K18R, T20S, L30F, L91V, A97N, S99W, L102F
B15: 234E1F12 (antibody, V domains shown)
VH: B2 VH
VL: B1 VL with F10S, V13E, T14K, K18R, T20S, L30F, L91V, S99W, F100Y, L102F
B16: 226A4B5 (antibody, V domains shown)
VH: B4 VH with K19R, S52Y, N55S, L62Q, K65M, D66G, S72A, A73D, A79V
VL: B1 VL with F10S, L30F, W56R, L91V, A97D, F100Y, A106T
B17: 241H10A1 (antibody, V domains shown)
VH: B8 VH with L83V, Y107N
VL: B1 VL with F10S, S58A, L91V, A97D, S99F, F100Y, L102F, A106G
B18: 235A10C9 (antibody, V domains shown)
VH: B2 VH with T30A, R42G, G56S, D57G, N59K, K65T, S84T, T97A
VL: B1 VL with F10S, V13E, T14K, T20S, S22R, E87D, L91V, A97D, S99M, L102F
B19: 232F1E4 (antibody, V domains shown)
VH: QVQLKESGPGLVAPSQSLSITCTVSGFALTTYGVSWVRQPPGKGLEWLGVIWGDGSTHYHSALISRLSIRKDNSKSQVFLKLNSLQTDDTATYYCAKPGRGNAMDYWGQGTSVTVSS
VL: B1 VL with T5S, F10S, P49S, V84M, L91V, A97D, S99I, F100Y, K109M
B20: 231C11E9 (antibody, V domains shown)
VH: EVMLVESGGGLVKPGGSLKLSCAASGFTFNNYVMCWVRQTPEKRLEWVATISSGNFYTYYPDSVKGRFTISRDNAKNTLYLQMSSLRSEDTAIYYCASLGRGNALDNWGQGTSVTVSS
VL: B1 VL with S9A, F10S, G16K, K24R, L91V, A97D, F100Y, L102F, A106S, L112I
B21: 35E8D2 (antibody, V domains shown)
VH: QIQLVQSGPELKKPGETVRISCKASGYTFTTAGMQWVQKMPGKGLKWIGWINTHSRVPNFAEDFKGRFAFSLETSARIAYLQISNIKNEDMATYFCARLGKGNTMDFWGQGTSVTVSS
VL: B1 VL with F10S, A15V, G74E, V84L, L91V, A97S, A106G, K109N, L112I
B22: 424G9G3 (antibody, V domains shown)
VH: QVQLQQSGPEVVRPGASVKMSCKGSGYTLNNFWMHWVKQRPGQGLEWIGMIDTSNGETRLNQIFKDKATLTVDKSSKTAYMQLSSLTSEDSAVYYCAPYGNFADWGQGTTLTVSS
VL: DVLLTQTPLSLPVSLGDQASISCRSSQSIVYGNGNTYLEWYLQKPGQSPKLLIYKVSSRFSGVPDRFSGSGSGTDFTLKITKVEAEDLGVYYCFQGSHVPFTFGSGTKLEIK
B23: 61H12G10 (antibody, V domains shown)
VH: QVQLKESGPGLVAPSQSLSITCTVSGFSLTDYGVSWIRQPPGKGLEWLGVIWGGGSTYYNSALKSRLIISKDNSKSQVFLKMNSLQTDDTAIYYCAKHHYGNACDYWGQGTTLTVSS
VL: DIVMTQSPSSLTVTAGEKVTMSCKSSQSLFNSGNLKNYLTWYQQKPGQPPKLLICWASTRESGVPDRFTGSGSGTEFTLTISSVQAEDLAVYYCQNDYSYPFTFGSGTKLEIK
B24: 242F5H2 (antibody, V domains shown)
VH: EVMLVESGGGLVKPGGSLKLSCAASGFTFSSYTVSWVRQTPEKRLEWVATSIVGSTYTYFPDSVKGRFTISRDFAKNTLFLQMSSLRSEDTAMYYCSRLGRGNAMDYWGQGTSVSVSS
VL: B23 VL with M21L, S22N, K24R, F30L, L35Q, C55Y, E76D, E87D, D97G
B25: 69D5C1 (antibody, V domains shown)
VH: EVKLVESGGGLVQPGGSRKLSCAASGFTFRDYGMAWVRQAPGKGPEWITFISNLAYSIYYADTVTGRFTISTENAKNTLYLEMSSLRSEDTAMYYCAVIYYGNSFAYWGQGTLVTV
VL: B23 VL with M4L, F30L, K36R, C55Y, E76D, V84L, V91I, D97G
B26: 240D6F5 (antibody, V domains shown)
VH: B2 VH with R42G, D57G, T74P, S84N
VL: B23 VL with V13E, T14K, K18R, T20S, L35Q, C55Y, E76D, S99R, S106A, I112L
B27: 217D9G2 (antibody, V domains shown)
VH: B4 VH with K63N, S72A, S77T
VL: DIVMTQSPSSLTVTPGEKVTMSCRSSQSLFNSGNQKNYLIWYQQKPGQPPKLLIYRASTRDSGVPDRFTGSGSGTDFTLTISNVQAEDLAVYYCQNDYSYPLTFGAGTKLELK
B28: 185F2G12 (antibody, V domains shown)
VH: B3 VH with S30T, K38R, N61S, T69S, S77T, L97A, T103A
VL: B27 VL with P15A, M21L, R24K, S32T, I40T, Y55F, D61E, S73F, N83S, Y98F
B29: 231H4G11 (antibody, V domains shown)
VH: B2 VH with M34I, R42G, Y52S, D57Y, K65R
VL: DIVMTQSPSSLTEKAGERVSMSCKSSQSLFNSGSQKNYLTWYQQKPGQPPKLLIYWASTRESGVPDRFSGSGSGTDFTLTISSVQAEDLAVYYCQNNYWFPFTFGAGTKLELK
B30: 232D7C8 (antibody, V domains shown)
VH: B2 VH with R42G, D57G, T97A, Y101F
VL: DILMTQSPSSLTATAGEKVSMSCKSSQSLFNSGNQRNYLTWYQQRPGQPPKLLIYWASTRESGVPDRFTGSGSGTDFTLTISSVQAEDLAVYYCQNDYRYPFTFGAGTKLELK

The binders below were run against Claudin18.2-His protein (human) (assay: indirect ELISA on coated Claudin18.2-His).

Binder | EC50 [µg/mL]
B1 | 0.0037
B2 | 0.0943
B3 | 0.0236
B4 | 0.0335
B5 | 0.0259
B6 | 0.0405
B7 | 0.0145
B8 | 0.0268
B9 | 0.0112
B10 | 0.0114
B11 | 0.0154
B12 | 0.0224
B13 | 0.0201
B14 | 0.0387
B15 | 0.105
B16 | 0.00813
B17 | 0.0221
B18 | 0.0355
B19 | 0.0509
B20 | 0.0413
B21 | 0.00319
B22 | 0.03
B23 | 0.0351
B24 | 0.0193
B25 | 0.00266
B26 | 0.00792
B27 | 0.028
B28 | 0.0193
B29 | 0.0394
B30 | 0.0305
